These results are taken from article PMC11484706.

What all share (assay): PU-beads capture (affinity pull-down), immunoblot band quantification
Common to all, as to conditions: HEK293 cells transfected with the mutant; n = 3; input = 2% of protein incubated with the beads; read off a plot
For orientation: Immunoblotting shows a protein as a band on a membrane.

The target of one assay is HOP (endogenous, HEK293).
Assay [1] addresses HSP110 (endogenous, HEK293).
For assay [2], the target named is PU-beads (PU-H71 epichaperome affinity probe).
In assay [3] the target is AHA1 (endogenous, HEK293).

Regarding mCherry WT HSP90β (HEK293) S226A; S255A, the response (normalized to MDA-MB-468) in the assay with HOP (endogenous, HEK293) was found to be 0.25; in assay [1], 0.63; in assay [2], 0.65; in assay [3], 0.65.
